Data reported in article PMC4421837.
Where “and” joins values, the source holds several entries; their conditions need not be identical. Equal values may be shown once.

Key:
[1] = molecular target: K18 tau construct (K18-C291A/C322A/I260C), labelled with AlexaFluor-488 or AlexaFluor-647; assay: FRET or BRET; single-molecule FRET of oligomers during aggregation: equimolar A488- and A647-labelled construct, 10 uM in all, 50 mM ammonium acetate pH 7.0, 37 °C, undisturbed, heparin (MW 3000) at 1:4 molar ratio; aliquots diluted 50,000-fold into the same buffer with 0.1 mg/ml BSA and 2.5 uM heparin, measured under flow in a microfluidic channel; bursts in the acceptor channel counted as oligomers
[2] = molecular target: K18 tau construct (K18-C291A/C322A/I260C), labelled with AlexaFluor-488 or AlexaFluor-647; assay: FRET or BRET; single-molecule FRET of species released from washed A488/A647-K18 filaments: pellet washed four times, fresh 50 mM ammonium acetate pH 7.0 added; aliquots diluted into the same buffer and measured on BSA-treated slides, no flow
[3] = molecular target: K18-ΔK280, labelled with AlexaFluor-488 or AlexaFluor-647; assay: FRET or BRET; single-molecule FRET of oligomers during aggregation: equimolar A488- and A647-labelled construct, 10 uM in all, 50 mM ammonium acetate pH 7.0, 37 °C, undisturbed, heparin (MW 3000) at 1:4 molar ratio; aliquots diluted 50,000-fold into the same buffer with 0.1 mg/ml BSA and 2.5 uM heparin, measured under flow in a microfluidic channel; bursts in the acceptor channel counted as oligomers
[4] = molecular target: K18-P301L, labelled with AlexaFluor-488 or AlexaFluor-647; assay: as above

“K18 tau construct (K18-C291A/C322A/I260C), labelled with AlexaFluor-488 or AlexaFluor-647 (domain or fragment)” was tested, and the oligomer concentration (typical) [1] was 5 nM, the percent of detected soluble species that are oligomers (after 0.5 h) [1] was 0.1% and the percent of soluble tau that is oligomeric (immediately after dilution of filaments) [2] was 0.6 to 3%.

With “K18-ΔK280, labelled with AlexaFluor-488 or AlexaFluor-647 (domain or fragment)” the fold more oligomers at peak than for K18 [3] was 50 fold and the percent of detected species that are oligomers (at peak, 0.5 h) [3] was 4%.

For “K18-P301L, labelled with AlexaFluor-488 or AlexaFluor-647 (domain or fragment)”, the peak oligomer concentration relative to K18-wt [4] was 4 fold and 3 fold.
